Values quoted from earlier work in PMC5883021.

Molecular target: F-actin (Oryctolagus cuniculus) (UniProt P68135)

For TAGLN2 (from UniProt P37802), which Kd is on record?
The Kd was 7.39 µM.
